Consider 5 sequences from the supplement of paper PMC5998384.

Data set [1] has as its system HeLa Kyoto. In words: solubility in G1/S (NP-40 vs SDS abundance) (log2 ratio); higher = more soluble. Particulars: cell cycle stage: G1/S.
Data set [2] relates to HeLa Kyoto. Put plainly: solubility change mitosis vs G1/S (difference of NP-40 vs SDS log2 ratios) (log2 ratio difference); higher = more soluble in mitosis.
The subject of data set [3] is HeLa Kyoto. In words: melting temperature (median over replicates), in situ; higher = more thermally stable.
Data set [4] has as its system HeLa Kyoto. In words: thermal stability score vs G1/S (z-score of summed log2 fold changes over temperatures); higher = more thermally stable than in G1/S.
The mark [5] stands for this setting: cell cycle stage: early G1 (4.5 h after nocodazole release).
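Wherever melting temperature (median over replicates), in situ is given: HeLa Kyoto cells synchronized by double thymidine or nocodazole block, proteins quantified by TMT10plex mass spectrometry, three independent biological replicates.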
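Wherever solubility change mitosis vs G1/S (difference of NP-40 vs SDS log2 ratios) is given: synchronized HeLa Kyoto cells (double thymidine block for G1/S, nocodazole release for mitosis), protein amounts in NP-40 versus SDS lysates quantified by mass spectrometry, three biological replicates.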
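Wherever solubility in G1/S (NP-40 vs SDS abundance) is given: HeLa Kyoto cells arrested at G1/S by double thymidine block, proteins quantified by TMT10plex mass spectrometry in mild NP-40 versus SDS extracts, three biological replicates.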
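Wherever thermal stability score vs G1/S (z-score of summed log2 fold changes over temperatures) is given: synchronized HeLa Kyoto cells, proteins quantified by TMT10plex mass spectrometry, three biological replicates, mitosis taken 0.5 h after nocodazole release, G1/S directly after double thymidine block.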

On to “MWSGRKLGSSGGWFLRVLGPGGCNTKAARPLISSAVYVKNQLSGTLQIKPGVFNEYRTIWFKSYRTIFSCLNRIKSFRYPWARLYSTSQTTVDSGEVKTFLALAHKWWDEQGVYAPLHSMNDLRVPFIRDNLLKTIPNHQPGKPLLGMKILDVGCGGGLLTEPLGRLGASVIGIDPVDENIKTAQCHKSFDPVLDKRIEYRVCSLEEIVEETAETFDAVVASEVVEHVIDLETFLQCCCQVLKPGGSLFITTINKTQLSYALGIVFSEQIASIVPKGTHTWEKFVSPETLESILESNGLSVQTVVGMLYNPFSGYWHWSENTSLNYAAYAVKSRVQEHPASAEFVLKGETEELQANACTNPAVHEKLKK [COQ3]”, for which the “solubility in G1/S (log2)” value in the data set on HeLa Kyoto [1] came out at 0.345. In the data set with HeLa Kyoto [2], the “solubility change mitosis (log2)” value is -0.0133. Moreover, the melting temperature in the data set with HeLa Kyoto [3] (cell cycle stage: G1/S) was determined as 55.3 °C; with HeLa Kyoto [3] (cell cycle stage: mitosis), 56.3 °C. For the same sequence, the thermal stability score is -0.812 in the data set on HeLa Kyoto [4] (setting [5]) and -0.988 in the data set on HeLa Kyoto [4] (cell cycle stage: mitosis).
As to “MWSPEREAEAPAGGDPAGLLPPEWEEDEERMSFLFSAFKRSREVNSTDWDSKMGFWAPLVLSHSRRQGVVRLRLRDLQEAFQRKGSVPLGLATVLQDLLRRGELQRESDFMASVDSSWISWGVGVFLLKPLKWTLSNMLGDNKVPAEEVLVAVELLKEKAEEVYRLYQNSPLSSHPVVALSELSTLCANSCPDERTFYLVLLQLQKEKRVTVLEQNGEKIVKFARGPRAKVSPVNDVDVGVYQLMQSEQLLSRKVESLSQEAERCKEEARRACRAGKKQLALRSLKAKQRTEKRIEALHAKLDTVQGILDRIYASQTDQMVFNAYQAGVGALKLSMKDVTVEKAESLVDQIQELCDTQDEVSQTLAGGVTNGLDFDSEELEKELDILLQDTTKEPLDLPDNPRNRHFTNSVPNPRISDAELEAELEKLSLSEGGLVPSSKSPKRQLEPTLKPL [CHMP7]”, in the data set on HeLa Kyoto [1], the “solubility in G1/S (log2)” value worked out at 0.221. Besides, the “solubility change mitosis (log2)” value in the data set on HeLa Kyoto [2] is -0.0049. In addition, the melting temperature in the data set on HeLa Kyoto [3] (cell cycle stage: G1/S) amounted to 49.2 °C; in the data set with HeLa Kyoto [3] (cell cycle stage: mitosis), 48.9 °C. In addition, the thermal stability score in the data set on HeLa Kyoto [4] (setting [5]) was 0.579; in the data set with HeLa Kyoto [4] (cell cycle stage: mitosis), 1.08.
With “MYAVYKQAHPPTGLEFSMYCNFFNNSERNLVVAGTSQLYVYRLNRDAEALTKNDRSTEGKAHREKLELAASFSFFGNVMSMASVQLAGAKRDALLLSFKDAKLSVVEYDPGTHDLKTLSLHYFEEPELRDGFVQNVHTPRVRVDPDGRCAAMLVYGTRLVVLPFRRESLAEEHEGLVGEGQRSSFLPSYIIDVRALDEKLLNIIDLQFLHGYYEPTLLILFEPNQTWPGRVAVRQDTCSIVAISLNITQKVHPVIWSLTSLPFDCTQALAVPKPIGGVVVFAVNSLLYLNQSVPPYGVALNSLTTGTTAFPLRTQEGVRITLDCAQATFISYDKMVISLKGGEIYVLTLITDGMRSVRAFHFDKAAASVLTTSMVTMEPGYLFLGSRLGNSLLLKYTEKLQEPPASAVREAADKEEPPSKKKRVDATAGWSAAGKSVPQDEVDEIEVYGSEAQSGTQLATYSFEVCDSILNIGPCANAAVGEPAFLSEEFQNSPEPDLEIVVCSGHGKNGALSVLQKSIRPQVVTTFELPGCYDMWTVIAPVRKEEEDNPKGEGTEQEPSTTPEADDDGRRHGFLILSREDSTMILQTGQEIMELDTSGFATQGPTVFAGNIGDNRYIVQVSPLGIRLLEGVNQLHFIPVDLGAPIVQCAVADPYVVIMSAEGHVTMFLLKSDSYGGRHHRLALHKPPLHHQSKVITLCLYRDLSGMFTTESRLGGARDELGGRSGPEAEGLGSETSPTVDDEEEMLYGDSGSLFSPSKEEARRSSQPPADRDPAPFRAEPTHWCLLVRENGTMEIYQLPDWRLVFLVKNFPVGQRVLVDSSFGQPTTQGEARREEATRQGELPLVKEVLLVALGSRQSRPYLLVHVDQELLIYEAFPHDSQLGQGNLKVRFKKVPHNINFREKKPKPSKKKAEGGGAEEGAGARGRVARFRYFEDIYGYSGVFICGPSPHWLLVTGRGALRLHPMAIDGPVDSFAPFHNVNCPRGFLYFNRQGELRISVLPAYLSYDAPWPVRKIPLRCTAHYVAYHVESKVYAVATSTNTPCARIPRMTGEEKEFETIERDERYIHPQQEAFSIQLISPVSWEAIPNARIELQEWEHVTCMKTVSLRSEETVSGLKGYVAAGTCLMQGEEVTCRGRILIMDVIEVVPEPGQPLTKNKFKVLYEKEQKGPVTALCHCNGHLVSAIGQKIFLWSLRASELTGMAFIDTQLYIHQMISVKNFILAADVMKSISLLRYQEESKTLSLVSRDAKPLEVYSVDFMVDNAQLGFLVSDRDRNLMVYMYLPEAKESFGGMRLLRRADFHVGAHVNTFWRTPCRGATEGLSKKSVVWENKHITWFATLDGGIGLLLPMQEKTYRRLLMLQNALTTMLPHHAGLNPRAFRMLHVDRRTLQNAVRNVLDGELLNRYLYLSTMERSELAKKIGTTPDIILDDLLETDRVTAHF [CPSF1]”, the “solubility in G1/S (log2)” value in the data set on HeLa Kyoto [1] was -0.464. The “solubility change mitosis (log2)” value in the data set on HeLa Kyoto [2] was 0.129. The melting temperature is 50.3 °C with HeLa Kyoto [3] (cell cycle stage: G1/S) and 50.6 °C with HeLa Kyoto [3] (cell cycle stage: mitosis). For the same sequence, the thermal stability score was -0.361 in the data set on HeLa Kyoto [4] (setting [5]) and 0.307 in the data set on HeLa Kyoto [4] (cell cycle stage: mitosis).
Take “MYFPSWLSQLYRGLSRPIRRTTQPIWGSLYRSLLQSSQRRIPEFSSFVVRTNTCGELRSSHLGQEVTLCGWIQYRRQNTFLVLRDFDGLVQVIIPQDESAASVKKILCEAPVESVVQVSGTVISRPAGQENPKMPTGEIEIKVKTAELLNACKKLPFEIKNFVKKTEALRLQYRYLDLRSFQMQYNLRLRSQMVMKMREYLCNLHGFVDIETPTLFKRTPGGAKEFLVPSREPGKFYSLPQSPQQFKQLLMVGGLDRYFQVARCYRDEGSRPDRQPEFTQIDIEMSFVDQTGIQSLIEGLLQYSWPNDKDPVVVPFPTMTFAEVLATYGTDKPDTRFGMKIIDISDVFRNTEIGFLQDALSKPHGTVKAICIPEGAKYLKRKDIESIRNFAADHFNQEILPVFLNANRNWNSPVANFIMESQRLELIRLMETQEEDVVLLTAGEHNKACSLLGKLRLECADLLETRGVVLRDPTLFSFLWVVDFPLFLPKEENPRELESAHHPFTAPHPSDIHLLYTEPKKARSQHYDLVLNGNEIGGGSIRIHNAELQRYILATLLKEDVKMLSHLLQALDYGAPPHGGIALGLDRLICLVTGSPSIRDVIAFPKSFRGHDLMSNTPDSVPPEELKPYHIRVSKPTDSKAERAH [DARS2]”: in the data set on HeLa Kyoto [1], the “solubility in G1/S (log2)” value came out at 0.144. In the data set on HeLa Kyoto [2], the “solubility change mitosis (log2)” value was -0.114. Also, the values for the melting temperature with HeLa Kyoto [3] (cell cycle stage: G1/S) and with HeLa Kyoto [3] (cell cycle stage: mitosis) were 55.5 °C and 55.9 °C, respectively. Moreover, the values for the thermal stability score in the data set with HeLa Kyoto [4] (setting [5]) and in the data set on HeLa Kyoto [4] (cell cycle stage: mitosis) were -0.868 and 0.237, respectively.
“MYHSLSETRHPLQPEEQEVGIDPLSSYSNKSGGDSNKNGRRTSSTLDSEGTFNSYRKEWEELFVNNNYLATIRQKGINGQLRSSRFRSICWKLFLCVLPQDKSQWISRIEELRAWYSNIKEIHITNPRKVVGQQDLMINNPLSQDEGSLWNKFFQDKELRSMIEQDVKRTFPEMQFFQQENVRKILTDVLFCYARENEQLLYKQGMHELLAPIVFVLHCDHQAFLHASESAQPSEEMKTVLNPEYLEHDAYAVFSQLMETAEPWFSTFEHDGQKGKETLMTPIPFARPQDLGPTIAIVTKVNQIQDHLLKKHDIELYMHLNRLEIAPQIYGLRWVRLLFGREFPLQDLLVVWDALFADGLSLGLVDYIFVAMLLYIRDALISSNYQTCLGLLMHYPFIGDVHSLILKALFLRDPKRNPRPVTYQFHPNLDYYKARGADLMNKSRTNAKGAPLNINKVSNSLINFGRKLISPAMAPGSAGGPVPGGNSSSSSSVVIPTRTSAEAPSHHLQQQQQQQRLMKSESMPVQLNKGLSSKNISSSPSVESLPGGREFTGSPPSSATKKDSFFSNISRSRSHSKTMGRKESEEELEAQISFLQGQLNDLDAMCKYCAKVMDTHLVNIQDVILQENLEKEDQILVSLAGLKQIKDILKGSLRFNQSQLEAEENEQITIADNHYCSSGQGQGRGQGQSVQMSGAIKQASSETPGCTDRGNSDDFILISKDDDGSSARGSFSGQAQPLRTLRSTSGKSQAPVCSPLVFSDPLMGPASASSSNPSSSPDDDSSKDSGFTIVSPLDI [TBC1D5]”: in the data set on HeLa Kyoto [1], the “solubility in G1/S (log2)” value stood at 0.207. In the data set with HeLa Kyoto [2], the “solubility change mitosis (log2)” value is -0.272. Also, the melting temperature turned out to be 50.7 °C in the data set on HeLa Kyoto [3] (cell cycle stage: G1/S) and 50.1 °C in the data set on HeLa Kyoto [3] (cell cycle stage: mitosis). Further, the thermal stability score worked out at 0.296 in the data set with HeLa Kyoto [4] (setting [5]) and 0.901 in the data set with HeLa Kyoto [4] (cell cycle stage: mitosis).
